# Data published in the RNAGym collection of RNA variant scans (doi:10.1093/nar/gkz1192).
# B1: CPEB3 Ribozyme (parent)
# chain: UAACAGGGGGCCACAGCAGAAGCGUUCACGUCGCAGCCCCUGUCAGAUUCUGGUGAAUCUGCGAAUUCUGCUGUAUAUCUC
# Variants of: B1
# Test: self-cleavage, relative activity (ratio to wild type); higher = more cleavage; in vitro, sequencing
# In short: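 Libraries of CPEB3 self-cleaving ribozyme mutants came from rounds of error-prone PCR and carried barcodes, which DNA sequencing matched to variants. In vitro transcription used T7 RNA polymerase at 37°C for 5 hours, with a further 15 min in DNase I before EDTA stopped the reaction; the ribozymes cleaved during both steps. The RNA was reverse transcribed with template switching and sequenced on Illumina. Relative activity is the cleaved/total read fraction of a variant divided by that of the unmutated ribozyme, averaged over three batches with at least 5 reads.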
row,Variant,self-cleavage
1,A15C A28U,0.8
2,C14G A35G,1.24
3,C14U C38A,0.14
4,A15C G63A,0.99
5,A13U U72C,0.96
6,A13U U72G,0.76
7,A13U U72A,0.77
8,A15G A65U,0.23
9,A15G A65G,0.39
10,C14A C32U,0.21
11,C14A C32A,0.2
12,C14A G70U,0.22
13,C14A U49C,0.23
14,A13U U58C,0.72
15,A13U U58G,0.3
16,C14A U26C,0.63
17,A15G A47G,0.87
18,A15G A47U,0.64
19,C14G A56G,1
20,C14G U25C,0.17
21,C14U U76C,1.15
22,A15G C32G,0.11
23,A15G C32A,0.24
24,A15G C32U,0.19

row,Variant,self-cleavage
1,A15G C81G,1.09
2,A15G C81U,1.02
3,A15G C81A,1.16
4,C14G U72C,0.69
5,C14U U66A,0.52
6,C14U U66C,0.8
7,C14G A15C,0.37
8,C14G A15G,0.79
9,C14A U76C,0.94
10,C14G C40G,0.1
11,C14U G61C,0.35
12,C14U U43G,0.27
13,C14U U43A,1.18
14,C14U U43C,1.08
15,C14U G36A,0.32
16,A15C C37U,0.58
17,C14U G63A,1.26
18,C14G U54C,1.03
19,A15C A35G,1.08
20,C14A A28U,0.76
21,C14U A75G,1.23
22,C14U A75U,1.23
23,A15C C29U,0.22
24,C14A U25C,0.21

row,Variant,self-cleavage
1,C14A A56G,1.1
2,A15G G36U,0.3
3,A15G G36A,0.34
4,A15C G53C,0.95
5,A15C A18G,0.41
6,A15C A18C,0.35
7,A15C A18U,0.32
8,C14G A65C,0.32
9,C14G A65U,0.26
10,C14A U60C,0.29
11,A15C A45G,0.88
12,A15C A45C,0.37
13,A15C A45U,0.45
14,A15C G73A,1.26
15,C14U U58C,0.77
16,A15C U54C,0.98
17,A13U U67A,0.7
18,A13U U67C,0.3
19,C14U U69C,0.57
20,A15C C68U,0.59
21,C14U G46U,0.27
22,C14U G46A,0.12
23,C14U U78G,1.27
24,C14U U78C,1.22

row,Variant,self-cleavage
1,C14A U72C,1.22
2,C14U G52C,1.23
3,C14A A18U,0.49
4,C14A A20G,0.96
5,C14A G63U,1.14
6,C14A G63A,0.93
7,A15G G16U,0.25
8,A15G G16A,0.33
9,C14U A77G,1.34
10,C14U A77C,0.53
11,C14U A18G,0.82
12,C14U A18U,0.44
13,A13U U80G,1.27
14,A13U U80C,1.18
15,A13U U80A,1.25
16,A15C C59U,0.85
17,A15C U31A,0.42
18,A15C U31C,0.6
19,A15G A20C,0.18
20,A15G A20G,0.47
21,A15G A20U,0.24
22,C14U A35C,1.11
23,C14U A35U,1.04
24,C14U A35G,1.38

row,Variant,self-cleavage
1,A15C A64G,0.62
2,C14G U49C,0.33
3,A15G C62U,0.26
4,A15G C62A,0.17
5,C14G U66C,0.29
6,C14U A56G,1.23
7,C14U A56U,0.5
8,A15G C39G,0.29
9,A15G C39A,0.32
10,A15G C39U,0.98
11,A15C U48C,0.47
12,C14U G33A,0.21
13,A15G C27A,0.21
14,A15G C27U,0.27
15,C14G U74C,0.89
16,C14U A65U,0.34
17,C14A G19A,0.29
18,C14U U51A,1.24
19,C14U U51C,1.25
20,A15C A57G,0.43
21,A15C A57U,0.54
22,C14U U48A,0.71
23,C14U U48C,0.97
24,A15C U25A,0.23

row,Variant,self-cleavage
1,A15C U25C,0.23
2,A15C G24A,0.18
3,C14G,1.08
4,C14U,1.15
5,C14A,1.17
6,C14U U26A,0.93
7,C14U U26C,0.66
8,A15G A35C,0.45
9,A15G A35U,0.53
10,A15G A35G,0.68
11,A15G C71U,0.28
12,C14A U74A,1.25
13,C14A U74C,1.23
14,C14A A65G,0.78
15,A15G C23G,0.42
16,A15G C23A,0.19
17,A15G C23U,0.29
18,C14A U41C,1.22
19,C14U C17U,0.87
20,C14U U72C,1.21
21,C14U U60A,0.53
22,C14U U60G,0.41
23,A15G A56G,0.62
24,A15G A56U,0.39

row,Variant,self-cleavage
1,A15G A56C,0.35
2,A15C U41A,0.22
3,A15C U41G,0.15
4,A15C U41C,1.13
5,A15G A21U,0.33
6,A15G A21C,0.35
7,A15G A21G,0.49
8,C14U U80C,1.33
9,A13U U74C,1.28
10,A13U U74A,1.23
11,A15G C68U,0.67
12,A15G C68A,0.2
13,C14U U67C,0.23
14,C14U U67A,0.42
15,C14G U48C,0.47
16,A13U U69A,0.74
17,A13U U69C,0.71
18,A13U U69G,0.85
19,A15C U74C,1.16
20,A15G C59A,0.27
21,A15G C59U,0.69
22,C14U U31A,0.74
23,A15C U43C,0.46
24,A15C U43G,0.25

row,Variant,self-cleavage
1,A15G C79G,1.26
2,A15G C79U,1.04
3,A15G C79A,1.19
4,C14U U41C,1.2
5,C14U U41A,0.24
6,C14U A15G,1.13
7,C14U A15U,1.07
8,C14A C17G,0.44
9,A13U U66C,0.48
10,A13U U66A,0.52
11,A13U U66G,0.81
12,A15G C29A,0.16
13,A15G C29G,0.16
14,A15G C29U,0.41
15,A15G A75G,0.92
16,A15G A75U,1.02
17,C14A G73U,1.26
18,A15G C37G,0.69
19,A15G C37A,0.11
20,A15G C37U,0.81
21,C14U U74G,1.27
22,C14G A20U,0.26
23,C14U U49C,0.33
24,C14A A21U,0.34

row,Variant,self-cleavage
1,C14U A57G,1.1
2,C14U A57C,0.66
3,A15C U72A,0.8
4,A15C U72C,1.1
5,A15G G22A,0.22
6,A15G G22U,0.46
7,C14U C59A,0.28
8,A15C A65U,0.17
9,A15C A65G,0.46
10,C14A A15G,1.1
11,A13U U76C,1.17
12,A13U U76A,1.11
13,A15G A64G,0.65
14,A15G A64C,0.25
15,A15G A64U,0.33
16,C14G U41C,1.14
17,A15G A77U,0.97
18,A15G A77C,1.1
19,A15G A77G,1.15
20,A15C U51A,1.06
21,A15C U51C,0.68
22,C14U G22C,0.18
23,C14U G22A,0.41
24,C14A C38G,0.19

row,Variant,self-cleavage
1,A13U U60A,0.73
2,A13U U60C,0.64
3,C14U C39A,0.55
4,A15G G24U,0.12
5,A15G G24A,0.39
6,A15C U69C,0.26
7,C14U A47G,0.7
8,C14U A47U,1.21
9,A15C U66G,0.45
10,A15C U66C,0.29
11,A15C A21C,0.26
12,A15C A21G,0.49
13,A15C A21U,0.34
14,C14A U78C,1.07
15,C14A U51C,1.04
16,C14A U51A,1.1
17,C14A A45G,1.15
18,C14A A45U,0.77
19,C14G A21G,0.45
20,C14G A21U,0.16
21,C14G G61A,0.42
22,A15C C17U,0.35
23,A15C C34U,0.29
24,C14G G53A,1.19

row,Variant,self-cleavage
1,C14A U43C,0.83
2,C14A U43A,1.24
3,C14A U69A,0.48
4,C14A U69C,0.4
5,A15C U76A,1.19
6,C14A G42A,0.09
7,C14G C29A,0.87
8,C14U A20U,0.4
9,C14U A20G,1.19
10,C14A A75U,1.23
11,C14A A35U,0.4
12,C14A A35G,1.26
13,A15C A20U,0.35
14,A15C A20G,0.66
15,A15C A20C,0.19
16,C14U U54G,1.16
17,C14U U54C,1.25
18,A15G A57G,0.63
19,A15G A57U,0.56
20,A15C U67C,0.18
21,C14U C29U,0.72
22,A15C U60C,0.28
23,A15G G19C,0.49
24,A15G G19U,0.28

row,Variant,self-cleavage
1,A15G G30A,0.33
2,A15G G30C,0.27
3,A15G G30U,0.42
4,A15G G33U,0.12
5,A15G G33A,0.24
6,A15G G33C,0.29
7,C14U C32A,0.2
8,C14U C32G,0.1
9,A15G C17U,0.48
10,A15G C17A,0.34
11,C14U A28U,1.21
12,C14U A28G,0.76
13,C14U C40U,1.07
14,C14U C40A,0.24
15,C14U C23G,0.12
16,A15G C44U,0.32
17,A15G C44A,0.28
18,C14A G53A,1.38
19,C14U U25A,0.44
20,C14U U25C,0.28
21,A15C C40U,0.72
22,A15C U78A,1.05
23,A15C U78C,0.87
24,A15C,0.92

row,Variant,self-cleavage
1,A15G,0.92
2,A13U U78A,1.21
3,A13U U78C,1.23
4,C14U A21G,0.78
5,C14A U66C,0.4
6,A15G C34G,0.29
7,A15G C34A,0.2
8,A15G C34U,0.25
9,A15G A18G,0.5
10,A15G A18U,0.26
11,A15G A18C,0.37
12,C14A A57U,1.14
13,C14U A64U,0.61
14,C14U A64G,1.17
15,A15G C38A,0.42
16,A15G C38U,0.81
17,A15C U80A,1.22
18,A15G A28C,0.53
19,A15G A28U,0.39
20,A15G A28G,0.49
21,C14A G24C,0.15
22,A15C U26C,0.36
23,C14G U51C,1.16
24,A15C A56G,0.68

row,Variant,self-cleavage
1,A15C A56U,0.3
2,C14U C79A,1.29
3,A15C G33C,0.16
4,A15G C50A,0.4
5,A15G C50U,0.33
6,A15G C50G,0.57
7,A15G A45C,0.31
8,A15G A45G,0.66
9,A15G A45U,0.44
10,A15C A47U,0.17
11,A15C A47G,0.85
12,A15C U49C,0.35
13,A15C U49A,0.7
14,C14A U54G,1.21
15,C14A U54A,1.19
16,C14A U67C,0.14
17,A15C U58G,0.29
18,A15C U58A,0.41
19,A15C U58C,0.21
20,A15G C40G,0.28
21,A15G C40U,0.67
22,A15G C40A,0.41
